One test has as its target T1, SHP-2 (human, UniProt Q06124 2-593).
T1 sequence (looked up): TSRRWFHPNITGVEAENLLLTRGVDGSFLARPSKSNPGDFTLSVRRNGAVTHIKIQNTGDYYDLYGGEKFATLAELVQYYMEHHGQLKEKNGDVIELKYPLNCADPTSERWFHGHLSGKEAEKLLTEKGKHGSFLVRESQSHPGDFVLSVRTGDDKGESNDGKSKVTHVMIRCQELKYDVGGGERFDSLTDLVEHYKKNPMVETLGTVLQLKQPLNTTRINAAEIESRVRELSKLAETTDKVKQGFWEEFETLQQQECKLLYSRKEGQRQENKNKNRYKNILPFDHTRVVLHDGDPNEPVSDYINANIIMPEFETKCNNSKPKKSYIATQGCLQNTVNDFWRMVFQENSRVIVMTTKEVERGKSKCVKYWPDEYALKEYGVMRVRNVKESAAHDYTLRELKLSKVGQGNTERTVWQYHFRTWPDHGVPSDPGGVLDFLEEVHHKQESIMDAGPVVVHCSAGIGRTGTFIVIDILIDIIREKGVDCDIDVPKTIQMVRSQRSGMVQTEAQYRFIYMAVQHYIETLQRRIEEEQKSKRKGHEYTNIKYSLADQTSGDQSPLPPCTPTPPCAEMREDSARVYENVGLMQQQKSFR
The experiment in a line: co-immunoprecipitation with anti-KIR2DL5 from transduced primary NK cells with or without pervanadate, immunoblot. How it is done:
(§1) FIG. 12A-12E: KIR2DL5 ITIM and ITSM mediated NK cell inhibition and suppressed downstream signaling. (A) Tyrosine (Y) in ITIM and ITSM of KIR2DL5 was mutated to phenylalanine (F). The KIR2DL5⁻ primary NK cells were transduced with WT KIR2DL5 or the indicated mutants, and then examined for protein expression with F8B30 (open) or mIgG1 (shaded). NC, negative control. Data are representative of 2 independent experiments. (B and C) Transduced primary NK cells were treated with (+) or without (−) pervanadate (VO₄) for 5 minutes. Cell lysates were immunoprecipitated with anti-KIR2DL5 antibodies. Phospho-tyrosine (4G10), SHP-1, SHP-2, and total KIR2DL5 were detected by immunoblots (B). Quantification of p-Tyr, SHP-1, and SHP-2 association with WT or mutant KIR2DL5 in VO₄-treated NK cells (C). WCL, whole-cell lysates. (D) Representative imaging of cell conjugates acquired upon the indicated transduced primary NK and PVR/Raji cell contact followed by staining with anti-KIR2DL5 mAb and DAPI. Scale bars: […]. (E) Lysis of scramble control or PVR^KO A427 (top) and Jurkat (bottom) by WT or mutant KIR2DL5-transduced primary NK cells at the indicated E/T ratios. Data are mean for duplicate measurements and representative of 3 independent experiments with 3 different donors. In A, and B, data are representative of 3 independent experiments. *P<0.05, **P<0.01, ***P<0.001, ****P<0.0001, by 1-way ANOVA (C), or paired Student's t test (D).
Coimmunoprecipitation and immunoblotting. NK92 cells or primary NK cells pretreated with or without 1 mM pervanadate (New England BioLabs) were lysed in Pierce immunoprecipitation lysis buffer supplemented with protease and phosphatase inhibitor cocktail (Thermo Fisher Scientific). Proteins from whole-cell lysis were further incubated with anti-KIR2DL5 antibodies and Dynabeads protein G (Thermo Fisher Scientific) for further immunoprecipitation. […]
In general terms: In western blotting, separated proteins are transferred to a membrane and probed.

Test [1] has as its target T2, PVR expressed on transduced cells (PVR-YFP) (UniProt P15151 21-417).
T2 construct: whole, on cells; On NIH 3T3 or Raji cells; also called PVR/3T3; PVR-YFP/3T3; not shown: YFP ('PVR-YFP ... fusion protein')
T2 sequence (looked up): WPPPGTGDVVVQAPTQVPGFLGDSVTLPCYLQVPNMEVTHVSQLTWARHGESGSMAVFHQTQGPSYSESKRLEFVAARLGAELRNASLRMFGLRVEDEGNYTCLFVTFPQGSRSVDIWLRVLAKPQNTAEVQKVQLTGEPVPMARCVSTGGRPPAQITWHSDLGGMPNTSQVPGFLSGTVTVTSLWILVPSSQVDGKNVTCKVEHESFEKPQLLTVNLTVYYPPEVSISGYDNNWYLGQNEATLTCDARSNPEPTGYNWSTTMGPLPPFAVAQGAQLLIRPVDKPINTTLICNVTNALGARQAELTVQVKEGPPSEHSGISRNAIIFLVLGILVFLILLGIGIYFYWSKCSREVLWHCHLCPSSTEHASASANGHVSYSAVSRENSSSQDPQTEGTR
Nature of the test: confocal imaging of conjugates of transduced primary NK cells with PVR-YFP/Raji cells. The procedure: as §1, with “The” for “FIG. 12A-12E: KIR2DL5 ITIM and ITSM mediated NK cell inhibition and suppressed downstream signaling. (A) Tyrosine (Y) in ITIM and ITSM of KIR2DL5 was mutated to phenylalanine (F). The”
NK-Raji conjugation assay. […] Cell mixtures were then loaded onto poly-L-lysine-precoated slides and fixed with 4% formaldehyde at RT for 15 minutes. After blocking with 5% normal goat serum at RT for 1 hour, cells were stained with 20 µg/mL anti-KIR2DL5 antibodies (a mixture of 8 homemade clones) at 4° C. overnight and then with goat anti-mIgG (H+L) Alexa Flour 647 (Invitrogen) at RT for 2 hours. The cells were permeabilized by 0.1% Triton X-100 at RT for 15 minutes and stained with Alexa Flour Plus 405 Phalloidin (Life Technologies) for 1 hour at RT. The slides were then mounted by Gold Antifade Mountant without DAPI (Life Technologies). The mean pixel intensity of synapse and non-synapse was respectively measured and statistically analyzed. Images were acquired by Leica SP8 confocal microscope and processed by ImageJ (NIH).

For test [2], the target named is T3, KIR2DL5-Ig fusion protein (KIR2DL5 extracellular domain fused to human IgG1 Fc) (human, UniProt Q8N109 22-240).
T3 construct: A D0-only fusion (H22-A128) also exists; also called KIR2DL5-human Ig fusion protein; KIR2DL5 DO-D2-Ig; not shown: human IgG1 Fc tag
Nature of the test: BLI, Octet RED96; KIR2DL5-Ig captured on anti-human Fc biosensors, mAb in solution; global 1:1 fit. How it is done: Biolayer interferometry. The affinities of anti-KIR2DL5 mAbs were analyzed by biolayer interferometry using an Octet RED96 system (ForteBio, Pall LLC). Briefly, anti-human Fc capture biosensors (ForteBio, Pall LLC) were preloaded with KIR2DL5-Ig and then dipped into a solution containing mAb at 2-fold serial dilutions (from 200 to 1.5 μg/mL). Data were analyzed using Forte Pall (Port Washington, New York, USA) software 9.0. The global data fitting to a 1:1 binding model was used to estimate values for the Kₒₙ (association rate constant), Koff (dissociation rate constant), and KD (equilibrium dissociation constant).
(In general: In BLI a coated tip is dipped into the sample, and binding shifts an interference pattern.)

For test [3], the target named is T4, D0-deleted KIR2DL5 expressed on 3T3 cells (human, UniProt Q8N109 119-375).
T4 construct: the signal peptide 1-21 is left out; also called KIR2DL5 dD0; DO-deleted KIR2DL5
Nature of the test: flow cytometry, transduced 3T3 cells. From the text: (§2) FIG. 15A-15E: Characterization of anti-KIR2DL5 specific monoclonal antibodies. (Related to FIGS. 8A-8D). (A) The protein sequence of KIR2DL5. The extracellular domain of KIR2DL5 was composed of tandem DO-D2 domains. The cytoplasmic tail of KIR2DL5 contained an immunoreceptor tyrosine-based inhibition motif (ITIM) and immunoreceptor tyrosine-based switch motif (ITSM). Domains were predicted and annotated based on UniProtKB (Q8N109). (B) The specificity of anti-KIR2DL5 mAbs. 3T3 cells transduced with indicated KIR family members were stained with 5 μg/ml of indicated anti-KIR2DL5 mAbs (open) or mIgG1 (shaded). (C, D) The affinity of anti-KIR2DL5 mAbs. C: Kinetic binding curves for F8B30 and B19C11. D: Data were acquired from kinetic binding curves detected by the Octet Red96 BLI instrument for indicated clones. (E) 3T3 cells transduced with DO-deleted (KIR2DL5 dD0) or D2-deleted KIR2DL5 (KIR2DL5 dD2) were stained with 5 μg/ml of indicated anti-KIR2DL5 mAbs. In B-E, data are representative of three independent experiments.

Test [4] addresses T5, D2-deleted KIR2DL5 expressed on 3T3 cells (human, UniProt Q8N109 22-375).
T5 construct: also called KIR2DL5 dD2
Nature of the test: flow cytometry, transduced 3T3 cells.
Description: as §2
For orientation: A flow cytometer gives signals particle by particle.

B1: Y298F (receptor)
receptor chain: HEGGQDKPLLSAWPSAVVPRGGHVTLLCRSRLGFTIFSLYKEDGVPVPELYNKIFWKSILMGPVTPAHAGTYRCRGSHPRSPIEWSAPSNPLVIVVTGLFGKPSLSAQPGPTVRTGENVTLSCSSRSSFDMYHLSREGRAHEPRLPAVPSVNGTFQADFPLGPATHGGTYTCFGSLHDSPYEWSDPSDPLLVSVTGNSSSSSSSPTEPSSKTGIRRHLHILIGTSVAIILFIILFFFLLHCCCSNKKNAAVMDQEPAGDRTVNREDSDDQDPQEVTFAQLDHCVFTQTKITSPSQRPKTPPTDTTMYMELPNAKPRSLSPAHKHHSQALRGSSRETTALSQNRVASSHVPAAGI
notes: also called KIR2DL5 Y298F (ITIM mutant) on transduced primary NK cells
B1: the results for the binding result (with SHP-2; in test [1]) were “no binding” and “binds”, respectively.

B2: anti-KIR2DL5 mAb clone B7B23 (antibody, V domains shown)
VH: QVQLQQSGAELVRPGVSVKISCKGSGYTFTDYTMHWVKQSHAKSLEWIGVISPYYGDASYNQKFKGKATMTVDKSSSTAYMELARLTSEDSAIYYCARGLLRGFAYWGQGTLVTVS
VL: DIVMTQSPSSKDMSVGQKVTMRCKSSKSLLNSSNQKKYLAWYQQKPGQSPKLLVYFASIRESGVPDRFIGSGSGTDFTLTISSVQVEDLADYFCQQHYSTPWTFGGG
notes: also called B7B23 (IgG1, κ)
In the case of B2, in test [2], binding was characterised by a dissociation constant (Kd) of 41.3 pM; the off-rate constant (koff) (usually a measure of how fast the partners let go of each other) came out at 6.96e-05 s⁻¹; the kon – broadly, the rate constant with which the complex forms – was 1.69e+06 M⁻¹ s⁻¹. Besides, in test [3], the binding result is “no binding (tested: 5 µg/ml)”. Also, in test [4], the binding result was “no binding (tested: 5 µg/ml)”.

The values above are taken from patent US20250019435A1 (ALBERT EINSTEIN COLLEGE OF MEDICINE, published 2025).
